Experimental data published in US20040171794A1 (DYAX, published 2004).

Target: T1, human neutrophil elastase (human, UniProt P08246 30-247, limits assumed)
T1 construct: also called HNE; hNE
T1 sequence (looked up): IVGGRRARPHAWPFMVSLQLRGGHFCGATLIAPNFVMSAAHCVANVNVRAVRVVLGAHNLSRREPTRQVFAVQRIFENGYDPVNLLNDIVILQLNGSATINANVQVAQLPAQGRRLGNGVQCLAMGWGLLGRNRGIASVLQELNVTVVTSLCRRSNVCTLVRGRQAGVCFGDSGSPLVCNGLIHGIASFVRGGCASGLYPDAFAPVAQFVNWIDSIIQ
Test: equilibrium inhibition of HNE activity on a fluorogenic peptide substrate, tight-binding model, 24 h incubation at 30 C
Description: Inhibition of hNE was determined at 30° C. in 50 mM HEPES, pH 7.5, 150 mM NaCl, and 0.1% Triton X-100. […] Residual enzymatic activities were determined from the relative rates of substrate hydrolysis. The hydrolysis reaction was initiated by addition of N-methoxysuccinyl-Ala-Ala-Pro-Val-7-amino-methylcoumarin (SEQ ID No.: 41) as substrate. Enzymatic cleavage of this substrate releases the methylcoumarin moiety with concomitant increase the sample fluorescence. The rate of substrate hydrolysis was monitored at an excitation of 360 nm and an emission of 460 nm. Plots of the percent remaining activity versus inhibitor concentration were fit by nonlinear regression analysis to Equation 1 to determine equilibrium dissociation constants.

binding result: binds
B1: DX-890 (peptide)
chain: EACNLPIVRGPCIAFFPRWAFDAVKGKCVLFPYGGCQGNGNKFYSEKECREYCGVP
notes: also called native DX-890
